B1: AP-Nogo66 (ligand, UniProt Q9NQC3 1055-1120, looked up)
chain: RIYKGVIQAIQKSDEGHPFRAYLESEVAISEELVQKYSNSALGHVNCTIKELRRLFLVDDLVDSLK
notes: Produced in conditioned medium of 293 cells; also called Alkaline Phosphatase-Nogo66 fusion; not shown: Alkaline Phosphatase (AP)

Experiments:
[1] = target: T1, Nogo Receptor (human, UniProt Q9BZR6 27-447); experiment: expression cloning; AP-fusion bait (20-50 nM) on transfected COS7 cells, chromogenic AP staining
T1 construct: whole, on cells; also called NgR; NgR1
T1 sequence (looked up): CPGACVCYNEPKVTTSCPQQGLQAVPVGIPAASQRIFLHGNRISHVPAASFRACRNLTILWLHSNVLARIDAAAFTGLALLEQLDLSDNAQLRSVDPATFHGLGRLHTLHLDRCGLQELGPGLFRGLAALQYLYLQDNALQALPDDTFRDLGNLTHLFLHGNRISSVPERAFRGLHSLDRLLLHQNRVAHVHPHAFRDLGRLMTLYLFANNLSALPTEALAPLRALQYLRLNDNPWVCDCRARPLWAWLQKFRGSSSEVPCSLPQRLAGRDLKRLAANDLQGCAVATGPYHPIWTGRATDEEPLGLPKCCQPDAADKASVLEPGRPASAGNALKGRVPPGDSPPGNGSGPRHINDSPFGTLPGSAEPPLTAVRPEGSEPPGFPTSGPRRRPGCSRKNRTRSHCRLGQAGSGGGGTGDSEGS
Source text: (§1) To identify novel receptors for inhibitory myelin proteins, an expression cloning approach was taken. As bait, constructs were generated that fused Alkaline Phosphatase (AP) to the N- and/or C-terminus of the following characterized myelin inhibitors (human cDNA used): Nogo66, two additional inhibitory domains of NogoA (NiRD2 and NiG20) (Oertle T, J Neurosci. 2003, 23(13): 5393-406), MAG, and OMgp. These constructs were transfected into 293 cells to produce conditioned medium (in DMEM/2% FBS) containing the bait proteins. The cDNA library used in the screen was comprised of full-length human cDNA clones in expression-ready vectors generated by Origene. These cDNAs were compiled, arrayed, and pooled. Pools of approximately 100 cDNA's were transiently transfected into COS7 cells.
(§2) In particular, on Day 1, COS7 cells were plated at a density of 85, 000 cells per well in 12-well plates. On Day 2, 1 mg of pooled cDNA's were transfected per well using the lipid-based transfection reagent FuGENE 6 (Roche). On Day 4, screening was performed. […] The cells were washed once in AP Buffer (100 mM NaCl, 5 mM MgCl₂, 100 mM Tris pH 9.5), and incubated in chromogenic substrate (Western Blue, Promega), and analyzed for presence of reaction product one hour after incubation, and again after overnight incubation. […]

[2] = target: B1; experiment: as above
Source text: as §1, §2

## B1
[1]
  binding result: binds

B2: Homo sapiens leukocyte immunoglobulin-like receptor, subfamily B (with TM and ITIM domains), member 2 (LILRB2) (receptor)
chain: QTGTIPKPTLWAEPDSVITQGSPVTLSCQGSLEAQEYRLYREKKSASWITRIRPELVKNGQFHIPSITWEHTGRYGCQYYSRARWSELSDPLVLVMTGAYPKPTLSAQPSPVVTSGGRVTLQCESQVAFGGFILCKEGEDEHPQCLNSQPHARGSSRAIFSVGPVSPNRRWSHRCYGYDLNSPYVWSSPSDLLELLVPGVSKKPSLSVQPGPVVAPGESLTLQCVSDVGYDRFVLYKEGERDLRQLPGRQPQAGLSQANFTLGPVSRSYGGQYRCYGAYNLSSEWSAPSDPLDILITGQIHGTPFISVQPGPTVASGENVTLLCQSWRQFHTFLLTKAGAADAPLRLRSIHEYPKYQAEFPMSPVTSAHAGTYRCYGSLNSDPYLLSHPSEPLELVVSGPSMGSSPPPTGPISTPAGPEDQPLTPTGSDPQSGLGRHLGVVIGILVAVVLLLLLLLLLFLILRHRRQGKHWTSTQRKADFQHPAGAVGPEPTDRGLQWRSSPAADAQEENLYAAVKDTQPEDGVEMDTRAAASEAPQDVTYAQLHSLTLRRKATEPPPSQEREPPAEPSIYATLAIH
notes: Full-length human cDNA clone expressed in COS7 cells; also called MIG10; ILT4
[2]
  binding result: binds

Source: US20090285803A1 (published 2009)
